Laboratory results published in patent US20140120109A1 (Regeneron, published 2014).

Tests used:
[1] = molecular target: T1, Fhm, hTL1A(Q167R), soluble, E. coli-expressed, residues 72-251 of SEQ ID NO:246 (human, UniProt O95150 72-251); assay: SPR 25C, mAb captured
T1 construct: with or without N-terminal Met
T1 chain: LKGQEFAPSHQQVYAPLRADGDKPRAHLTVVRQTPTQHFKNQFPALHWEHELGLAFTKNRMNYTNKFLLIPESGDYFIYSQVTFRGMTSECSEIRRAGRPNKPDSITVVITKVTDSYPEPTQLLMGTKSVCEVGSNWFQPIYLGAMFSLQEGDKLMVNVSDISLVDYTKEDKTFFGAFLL
Outline: (§1)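 Biacore T100 SPR with captured mAb and soluble TL1A/Fhm analyte; ka and kd fitted to a 1:1 model assuming monomeric TL1A. KD = kd/ka; t1/2 (min) = ln2/(60·kd).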

[2] = molecular target: T2, cynomolgus monkey TL1A, soluble, E. coli-expressed, residues 72-251 of SEQ ID NO:248 (cynomolgus monkey (Macaca fascicularis), UniProt O95150 72-251 (human entry)); assay: SPR 25C, mAb captured
T2 construct: with or without N-terminal Met; also called MfTL1A (E. Coli)
T2 chain: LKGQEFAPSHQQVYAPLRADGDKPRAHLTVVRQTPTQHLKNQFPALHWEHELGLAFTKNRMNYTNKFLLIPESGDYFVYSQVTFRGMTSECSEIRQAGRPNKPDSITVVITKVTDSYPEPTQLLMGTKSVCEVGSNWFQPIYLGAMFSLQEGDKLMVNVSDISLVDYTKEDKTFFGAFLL
Outline: as §1

[3] = molecular target: T3, mouse TL1A, soluble, E. coli-expressed, residues 76-252 of SEQ ID NO:250 (mouse, UniProt Q5UBV8 76-252); assay: SPR 25C, steady state
T3 construct: with or without N-terminal Met; also called mTL1A (E. Coli)
T3 sequence: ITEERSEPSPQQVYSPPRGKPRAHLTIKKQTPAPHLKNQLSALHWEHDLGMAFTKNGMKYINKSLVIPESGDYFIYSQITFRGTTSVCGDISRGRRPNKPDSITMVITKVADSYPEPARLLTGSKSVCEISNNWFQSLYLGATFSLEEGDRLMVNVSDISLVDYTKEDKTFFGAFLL
Outline: as §1

[4] = molecular target: T4, human TL1A, soluble, CHO-expressed, residues 72-251 of SEQ ID NO:244 with N-terminal His6-tag (human, UniProt O95150 72-251); assay: cell-based or functional assay
T4 sequence: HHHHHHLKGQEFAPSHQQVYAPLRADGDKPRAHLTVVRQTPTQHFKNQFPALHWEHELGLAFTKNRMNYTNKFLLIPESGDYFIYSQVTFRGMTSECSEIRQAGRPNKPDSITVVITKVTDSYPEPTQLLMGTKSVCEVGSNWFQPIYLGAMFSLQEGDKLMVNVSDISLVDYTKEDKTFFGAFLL

[5] = molecular target: T5, Fhm, hTL1A(Q167R), soluble, CHO-expressed, residues 72-251 of SEQ ID NO:246 (human, UniProt O95150 72-251); assay: ELISA, blocks FHM (10 pM) binding hDcR3-Fc
T5 construct: also called Fhm (CHO); FHM (CHO)
T5 chain: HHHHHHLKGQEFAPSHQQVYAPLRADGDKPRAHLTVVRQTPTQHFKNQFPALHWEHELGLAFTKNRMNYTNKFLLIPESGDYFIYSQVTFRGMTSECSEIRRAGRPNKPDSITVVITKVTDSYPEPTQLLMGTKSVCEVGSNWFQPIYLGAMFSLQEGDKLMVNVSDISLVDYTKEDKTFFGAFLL
Procedure: The ability of antibodies to block human TL1A binding to its cognate receptors, the DR3 and DcR3 receptors, was measured using a competition sandwich ELISA. In addition, blocking of a human TL1A variant FHM (human TL1A Q167R) and the cynomolgus monkey (Macaca fascicularis) TL1A (MfTL1A) protein binding to the human DR3 or DcR3 receptors was measured in the same manner. Constant amounts of biotinylated human TL1A or FHM (both expressed with a 6-His tag in CHO cells) or biotinylated MfTL1A (expressed in CHO cells) were separately titrated with varying amounts of antibodies. The antibody-protein complexes were incubated in solution (1 hr, 25° C.) and then transferred to microtiter plates coated with human DR3 (hDR3) or human DcR3 (hDcR3) expressed as human IgG1 Fc fusion proteins. After one hour at 25° C. the wells were washed, and bound human or monkey TL1A was detected with streptavidin conjugated with horseradish peroxidase (HRP). Wells were developed with a TMB solution to produce a colorimetric reaction and quenched with aqueous sulfuric acid before reading absorbance at 450 nm on a Perkin-Elmer Victor X5 plate reader. A sigmoidal dose-response curve was fit to the data using the Prism™ data analysis package. […] Both fully human anti-hTL1A mAbs and comparator antibodies, i.e., control mAb1 (an anti-hTL1A antibody with heavy and light chain variable domains having the amino acid sequences corresponding to SEQ ID NOS:21 and 27, respectively, of US 2009/0280116) and control mAb3 (an anti-hTL1A antibody with heavy and light chain variable domains having the amino acid sequences corresponding to SEQ ID NOS:57 and 48, respectively, of US 2009/0280116), were included in the study. NB: No binding under the conditions tested; NT: Not tested. Concentrations of biotinylated soluble ligands: (1) 150 pM; (2) 500 pM; (3) 10 pM; and (4) 50 pM.

B1: H4H1752P (antibody, human IgG4 S228P, V domains shown)
VH: EVQLVESGGGLVQPGGSLRLSCSASGFTFSKYVMTWVRQAPGKGLEWVSAIGPTGRTTEYADSVQGRFTISRDNSMNTVFLHLNSLTAEDTAEYYCAKMFDWNYDVYFDSWGQGTLVTVSS
VL: DIQMTQSPSILSASVGDRVTITCRTSQSISNWLAWYQQKPGKAPNLLIYKASSLESGVPSRFSGSGSGTEFTLTISSLQPDDFATYYCQQYYRYWTFGQGTKVEIK
binding result [1]: no binding (tested: up to 100 nM) | Kd [2]: 0.274 nM | t1/2 [2]: 2.03 h | binding result [3]: no binding (tested: up to 100 nM)

B2: H4H1704N (antibody, human IgG4 S228P, V domains shown)
VH: EVQLVESGGGLVQPGGSLRLSCAVSGFTFSSYWMSWVRQAPGKGLEWVANIKEDGSEKNYVDSVKGRFTLSSDNAKNSLYLQMNSLRAEDTAVYYCAREDYDSYYKYGMDVWGQGTAVIVSS
VL: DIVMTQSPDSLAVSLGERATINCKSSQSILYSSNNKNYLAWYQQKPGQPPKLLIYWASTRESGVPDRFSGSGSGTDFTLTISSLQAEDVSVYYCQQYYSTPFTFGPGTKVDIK
notes: human IgG4(S108P) form of H2M1704N
IC50, IFN-g release, average of donors [4]: 12 nM | IC50, IFN-g release, donor D5 [4]: 17 nM | IC50, IFN-g release, donor D6 [4]: 11 nM | IC50, IFN-g release, donor D7 [4]: 12 nM | IC50, IFN-g release, donor D8 [4]: 19 nM | IC50, IFN-g release, donor D9 [4]: 7.5 nM | IC50, IFN-g release, donor D10 [4]: 10 nM | IC50, IFN-g release, donor D11 [4]: 11 nM | IC50, IFN-g release, donor D12 [4]: 8 nM | IC50 [5]: 0.17 nM

B3: H4H1804N (antibody, human IgG4 S228P, V domains shown)
VH: QVQLHQWGAGLLKPSETLSLTCAVSGVSFSDYHWAWIRQSPGKGLEWIGDINHRGRTNYNPSLKSRVTISLDTSGNPFSLKLTSVTAADTAVYYCARDFPNWVFDSWGQGILVTVSS
VL: EIVLSQSPGTLSLSPGERATLSCRASQSVSSSFLAWYQQYPGQAPRLLIYGASRRATGIPDRFRGSGSGTDFTLTISRLEPEDFAVYYCQQYGSSPLTFGGGTKVENK
notes: human IgG4(S108P) form of H2M1804N
IC50, IFN-g release, average of donors [4]: 8.8 nM | IC50, IFN-g release, donor D1 [4]: 6.8 nM | IC50, IFN-g release, donor D2 [4]: 8.6 nM | IC50, IFN-g release, donor D3 [4]: 8.6 nM | IC50, IFN-g release, donor D4 [4]: 7.7 nM | IC50, IFN-g release, donor D5 [4]: 6.7 nM | IC50, IFN-g release, donor D6 [4]: 8.6 nM | IC50, IFN-g release, donor D7 [4]: 12 nM | IC50, IFN-g release, donor D8 [4]: 11 nM | IC50, IFN-g release, donor D9 [4]: 8.1 nM | IC50, IFN-g release, donor D10 [4]: 12 nM | IC50, IFN-g release, donor D11 [4]: 7.6 nM | IC50, IFN-g release, donor D12 [4]: 7.5 nM

B4: H4H1805N (antibody, human IgG4 S228P, V domains shown)
VH: QVQLQQWGAGLLKPSETLSLTCAVYGGSFTGFYWSWIRQPPGKGLEWIGEINHRGNTNYNPSLKSRVTMSVDTSKNQFSLNMISVTAADTAMYFCASPFYDFWSGSDYWGQGTLVTVSS
VL: DIMLTQTPLTSPVTLGQPASISCKSSQSLVHSDGNTYLSWLQQRPGQPPRLLFYKISNRFSGVPDRFSGSGAGTDFTLKISRVEAEDVGVYYCMQATQFPLTFGGGTKVEIK
notes: human IgG4(S108P) form of H2M1805N
IC50, IFN-g release, average of donors [4]: 4 nM | IC50, IFN-g release, donor D1 [4]: 2.4 nM | IC50, IFN-g release, donor D2 [4]: 5.5 nM | IC50, IFN-g release, donor D3 [4]: 3.4 nM | IC50, IFN-g release, donor D4 [4]: 2.5 nM | IC50, IFN-g release, donor D5 [4]: 2.9 nM | IC50, IFN-g release, donor D6 [4]: 3.4 nM | IC50, IFN-g release, donor D7 [4]: 8 nM | IC50, IFN-g release, donor D8 [4]: 5.1 nM | IC50, IFN-g release, donor D9 [4]: 5.9 nM | IC50, IFN-g release, donor D10 [4]: 2.8 nM | IC50, IFN-g release, donor D11 [4]: 3 nM | IC50, IFN-g release, donor D12 [4]: 3.1 nM

B5: H4H1817N (antibody, human IgG4 S228P, V domains shown)
VH: QVQLQQWGAGLLKPSETLSLTCAVSGGSFSDYFWTWIRQPPGKGLEWIGEISHSGRTNYNPSLKSRVTISVDTSMSQFSLKMTSVTAADSAVYYCARDYPNWVFDYWGQGTLVTVSS
VL: EIELTQSPGTLSLSPGEGATLSCRASQSVFNSYLAWYQQKPGQAPRLLIYGASRRATGIPDRFSGSGSGTDFTLTISRLEPGDFAVYFCQQYGNSPLTFGGGTKVEIK
notes: human IgG4(S108P) form of H2M1817N
IC50, IFN-g release, average of donors [4]: 6.5 nM | IC50, IFN-g release, donor D1 [4]: 6.6 nM | IC50, IFN-g release, donor D2 [4]: 3.1 nM | IC50, IFN-g release, donor D3 [4]: 4.7 nM | IC50, IFN-g release, donor D4 [4]: 2.4 nM | IC50, IFN-g release, donor D5 [4]: 8.5 nM | IC50, IFN-g release, donor D6 [4]: 4.7 nM | IC50, IFN-g release, donor D7 [4]: 7 nM | IC50, IFN-g release, donor D8 [4]: 7 nM | IC50, IFN-g release, donor D9 [4]: 9.5 nM | IC50, IFN-g release, donor D10 [4]: 7.3 nM | IC50, IFN-g release, donor D11 [4]: 7.3 nM | IC50, IFN-g release, donor D12 [4]: 9.4 nM

B6: H4H1719P (antibody, human IgG4 S228P, V domains shown)
VH: EVQLVESGGGLVQPGRSLRLSCVASGFTFQDYAMHWVRQAPGKGLEWVSGINWISDDMGYADSVMGRFTISRDNAKNSLYLQMDSLRAEDTALYYCAKDKGLRFLDYVMDVWGQGTTVTVSA
VL: DIVMTQSPLSLPVTPGEPASISCRSTQSLLHRNGHNYLHWYLHKPGQSPQLLIHLGSNRASGVPDRFSGSGSGTDFTLKISRVEAEDVGVYYCMQALQTPYTFGQGTKLEIK
Kd [1]: 0.109 nM | t1/2 [1]: 1.6 h | Kd [2]: 0.242 nM | t1/2 [2]: 1.32 h | binding result [3]: no binding (tested: up to 100 nM) | IC50 [5]: 0.045 nM

B7: H4H1738P (antibody, human IgG4 S228P, V domains shown)
VH: EVQLVESGGALVKPGGSLRLSCAVSGFTFINDWMNWVRQAPGKGLEWVGRIKSTTDGGTTDDAAPVKGRFTISRDDSKNTLYLQMNSLKTEDTAVYYCTRDRNRQRNYFYDGMDVWGQGTTVTVSA
VL: DIVMTQSPVSLPVTPGEPASISCRSSQRLLHNNGNNYLDWYLQKPGQSPQLLIYLGSNRASGVPDRFSGSGSGTDFTLKVSRVEAEDVGVYYCMQALQTPYTFGQGTKLEIK
Kd [1]: 1.02 nM | t1/2 [1]: 0.317 h | Kd [2]: 1.36 nM | t1/2 [2]: 0.3 h | binding result [3]: no binding (tested: up to 100 nM) | IC50 [5]: 0.15 nM

B8: H4H1745P (antibody, human IgG4 S228P, V domains shown)
VH: EVQLVESGGGLVQPGGSLRLSCAASGFTFSSYAMTWVRQAPGKGLEWVSGVSGRGGSTYYADSVKGRFTISRDNSKNTLYLQMNSLRAEDTAVYYCAYWDISSFDYWGQGTLVTVSS
VL: DIQLTQSPSFLSASVGDRVTITCWASQGISTYLAWYQQKPGKTPKLLIYAASTLQSGVPSRFSGSGSGTDFTLTISSLQPEDFATYYCQQFNSYPLTFGGGTKVEIK
Kd [1]: 0.115 nM | t1/2 [1]: 3.77 h | Kd [2]: 0.141 nM | t1/2 [2]: 3.68 h | binding result [3]: no binding (tested: up to 100 nM) | IC50 [5]: 0.085 nM

B9: H4H1750P (antibody, human IgG4 S228P, V domains shown)
VH: QVQLVESGGGVVQPGRSLRLSCVASGFTFSNYGMHWVRQAPGKGLEWVAVISYDGNNDLYSDSVKGRFTISRDNAKNALSLQMTSLRAEDTAVYYCARDSTMTPYYYHGIDVWGQGTTVTVSA
VL: DIQMTQSPSSLSASVGDRVTITCRASQDIRNDLGWYQQKPGKAPKRLIYAASSLQSGVPSRFSGSGSGTDFTLTISSLQPEDFATYYCLQHNSYPPTFGQGTKVEIK
Kd [1]: 0.204 nM | t1/2 [1]: 10.4 h | Kd [2]: 52.7 nM | t1/2 [2]: 0.0667 h | binding result [3]: no binding (tested: up to 100 nM) | IC50 [5]: 0.626 nM
